For test [1], the target named is α4β7 integrin on human cells (human, UniProt P13612 34-1032; P26010 20-798). The experiment in a line: cell-based or functional assay.
The target of test [2] is rh integrin α4β7 (R&D Systems #5397-A30) (human) (UniProt P13612). The experiment in a line: α4β7-MAdCAM competition ELISA.

Bridge positions count the residues as written; N and C are the ends. Square brackets hold non-standard residues; d marks the D form. Ends that are not written are not given here. Bip = N[C@@H](Cc1ccc(-c2ccccc2)cc1)C(=O)O; 1Nal = N[C@@H](Cc1cccc2ccccc12)C(=O)O; 2Nal = N[C@@H](Cc1ccc2ccccc2c1)C(=O)O; d1Nal = N[C@H](Cc1cccc2ccccc12)C(=O)O; d2Nal = N[C@H](Cc1ccc2ccccc2c1)C(=O)O; NMeR = CN[C@@H](CCCNC(=N)N)C(=O)O; hPhe = N[C@@H](CCc1ccccc1)C(=O)O; Tic = O=C(O)[C@@H]1Cc2ccccc2CN1; Aic = NC1(C(=O)O)Cc2ccccc2C1; NMeK = CN[C@@H](CCCCN)C(=O)O; Pen = CC(C)(S)[C@H](N)C(=O)O; dNMeK = CN[C@H](CCCCN)C(=O)O Bounds are passed on as bounds.

For the molecule Ac-[Pen][NMeR]SDTL[Pen][Bip][dE][dK]-NH2 (disulfide 1-7 (inferred); also: dimer via DIG) [SEQ ID NO 108], the “α4β7 cell (Hu) IC50” value in test [1] is over 10 nM.

B1: SEQ ID NO 12 (peptide)
peptide: Ac-[Pen][NMeR]SDTL[Pen][1Nal][dE][dNMeK]-NH2
modifications: disulfide 1-7
SMILES: CC(=O)N[C@@H]1C(=O)N(C)[C@@H](CCCNC(=N)N)C(=O)N[C@@H](CO)C(=O)N[C@@H](CC(=O)O)C(=O)N[C@@H]([C@@H](C)O)C(=O)N[C@@H](CC(C)C)C(=O)N[C@H](C(=O)N[C@@H](Cc2cccc3ccccc23)C(=O)N[C@H](CCC(=O)O)C(=O)N(C)[C@H](CCCCN)C(N)=O)C(C)(C)SSC1(C)C
B1: the IC50 in test [2] was over 25 nM.

B2: SEQ ID NO 51 (peptide)
peptide: Ac-[Pen][NMeR]SDTL[Pen]W[Aic][dK]-NH2
modifications: disulfide 1-7
SMILES: CC(=O)N[C@@H]1C(=O)N(C)[C@@H](CCCNC(=N)N)C(=O)N[C@@H](CO)C(=O)N[C@@H](CC(=O)O)C(=O)N[C@@H]([C@@H](C)O)C(=O)N[C@@H](CC(C)C)C(=O)N[C@H](C(=O)N[C@@H](Cc2c[nH]c3ccccc23)C(=O)NC2(C(=O)N[C@H](CCCCN)C(N)=O)Cc3ccccc3C2)C(C)(C)SSC1(C)C
The molecule B2 gave an IC50 in test [2] of over 25 nM.
For the molecule Ac-[Pen][NMeR]SDTL[Pen]W[Tic][dK]-NH2 (disulfide 1-7 (inferred); also: dimer via DIG) [SEQ ID NO 109], the “α4β7 cell (Hu) IC50” value in test [1] was over 100 nM.
The same measure, in the same setting: for Ac-[Pen][NMeR]SDTL[Pen][1Nal][dH][dK]-NH2 (disulfide 1-7 (inferred); also: homodimer via DIG) [SEQ ID NO 112] the value was over 50 nM.

B3: SEQ ID NO 88 (peptide)
peptide: Ac-[Pen][NMeR]SDTL[Pen][2Nal][dK]-NH2
modifications: disulfide 1-7
SMILES: CC(=O)N[C@@H]1C(=O)N(C)[C@@H](CCCNC(=N)N)C(=O)N[C@@H](CO)C(=O)N[C@@H](CC(=O)O)C(=O)N[C@@H]([C@@H](C)O)C(=O)N[C@@H](CC(C)C)C(=O)N[C@H](C(=O)N[C@@H](Cc2ccc3ccccc3c2)C(=O)N[C@H](CCCCN)C(N)=O)C(C)(C)SSC1(C)C
With B3, in test [2], the concentration for half-maximal inhibition (IC50) is over 10 nM.
Consider Ac-[Pen][NMeR]SDTL[Pen][1Nal][dE][dK]-NH2 (disulfide 1-7 (inferred)) [SEQ ID NO 8], for which the IC50 in test [2] was over 25 nM.

B4: SEQ ID NO 10 (peptide)
peptide: Ac-[Pen][NMeR]SDTL[Pen][d1Nal]E[dK]-NH2
modifications: disulfide 1-7
SMILES: CC(=O)N[C@@H]1C(=O)N(C)[C@@H](CCCNC(=N)N)C(=O)N[C@@H](CO)C(=O)N[C@@H](CC(=O)O)C(=O)N[C@@H]([C@@H](C)O)C(=O)N[C@@H](CC(C)C)C(=O)N[C@H](C(=O)N[C@H](Cc2cccc3ccccc23)C(=O)N[C@@H](CCC(=O)O)C(=O)N[C@H](CCCCN)C(N)=O)C(C)(C)SSC1(C)C
In turn, B4 returned an IC50 in test [2] of over 10 nM.
In test [2], Ac-[Pen][NMeR]SDTL[Pen][2Nal][dE][dK]-NH2 (disulfide 1-7 (inferred)) [SEQ ID NO 9] returned an IC50 of over 10 nM. In test [1], the “α4β7 cell (Hu) IC50” value was over 100 nM.
In the case of Ac-[Pen][NMeR]SDTL[Pen][1Nal][dF][dK]-NH2 (disulfide 1-7 (inferred); also: dimer via DIG) [SEQ ID NO 111], in test [1], the “α4β7 cell (Hu) IC50” value is over 100 nM.

B5: SEQ ID NO 143 (peptide)
peptide: [Pen][NMeR]SDTL[Pen][2Nal]E
modifications: disulfide 1-7 (inferred); not fully specified (bridges); printed as Cyclo-[Pen-(N-Me-R)-S-D-T-L-Pen-(2-Nal)-E], disulfide
For the molecule B5, the half-inhibitory concentration (IC50) in test [2] came to 250 nM. Moreover, in test [1], the “α4β7 cell (Hu) IC50” value is over 10000 nM.
Turning to Ac-[Pen][NMeR]SDTL[Pen][1Nal][dL][dK]-NH2 (disulfide 1-7 (inferred); also: homodimer via DIG) [SEQ ID NO 113], in test [1], the “α4β7 cell (Hu) IC50” value is over 500 nM.
For Ac-[Pen][NMeR]SDTL[Pen][2Nal][dE][dK]-NH2 (disulfide 1-7 (inferred); also: homodimer via DIG linker) [SEQ ID NO 29], the IC50 in test [2] is under 10 nM. The “α4β7 cell (Hu) IC50” value in test [1] was over 10 nM.
As to Ac-[Pen][NMeR]SDTL[Pen][2Nal]E[NMeK]-NH2 (disulfide 1-7 (inferred); also: homodimer via DIG) [SEQ ID NO 138], the IC50 in test [2] was over 10 nM. For the same molecule, the “α4β7 cell (Hu) IC50” value in test [1] was over 10 nM.

B6: SEQ ID NO 11 (peptide)
peptide: Ac-[Pen][NMeR]SDTL[Pen][d2Nal]E[dK]-NH2
modifications: disulfide 1-7
SMILES: CC(=O)N[C@@H]1C(=O)N(C)[C@@H](CCCNC(=N)N)C(=O)N[C@@H](CO)C(=O)N[C@@H](CC(=O)O)C(=O)N[C@@H]([C@@H](C)O)C(=O)N[C@@H](CC(C)C)C(=O)N[C@H](C(=O)N[C@H](Cc2ccc3ccccc3c2)C(=O)N[C@@H](CCC(=O)O)C(=O)N[C@H](CCCCN)C(N)=O)C(C)(C)SSC1(C)C
B6 returned an IC50 in test [2] of over 25 nM.

B7: SEQ ID NO 50 (peptide)
peptide: Ac-[Pen][NMeR]SDTL[Pen][2Nal][hPhe][dK]-NH2
modifications: disulfide 1-7
SMILES: CC(=O)N[C@@H]1C(=O)N(C)[C@@H](CCCNC(=N)N)C(=O)N[C@@H](CO)C(=O)N[C@@H](CC(=O)O)C(=O)N[C@@H]([C@@H](C)O)C(=O)N[C@@H](CC(C)C)C(=O)N[C@H](C(=O)N[C@@H](Cc2ccc3ccccc3c2)C(=O)N[C@@H](CCc2ccccc2)C(=O)N[C@H](CCCCN)C(N)=O)C(C)(C)SSC1(C)C
In test [2], B7 registered a concentration for half-maximal inhibition (IC50) of over 10 nM.
Regarding Ac-[Pen][NMeR]SDTL[Pen][1Nal][dR][dK]-NH2 (disulfide 1-7 (inferred); also: homodimer via DIG) [SEQ ID NO 114], in test [1], the “α4β7 cell (Hu) IC50” value is over 100 nM.
Turning to Ac-[Pen][NMeR]SDTL[Pen]W[dW][dK]-NH2 (disulfide 1-7 (inferred); also: dimer via DIG) [SEQ ID NO 110], the “α4β7 cell (Hu) IC50” value in test [1] is over 10 nM.

B8: SEQ ID NO 15 (peptide)
peptide: Ac-[Pen][NMeR]SDTL[Pen][2Nal]E[dNMeK]-NH2
modifications: disulfide 1-7
SMILES: CC(=O)N[C@@H]1C(=O)N(C)[C@@H](CCCNC(=N)N)C(=O)N[C@@H](CO)C(=O)N[C@@H](CC(=O)O)C(=O)N[C@@H]([C@@H](C)O)C(=O)N[C@@H](CC(C)C)C(=O)N[C@H](C(=O)N[C@@H](Cc2ccc3ccccc3c2)C(=O)N[C@@H](CCC(=O)O)C(=O)N(C)[C@H](CCCCN)C(N)=O)C(C)(C)SSC1(C)C
In test [2], B8 registered a half-maximal inhibitory concentration (IC50) of under 10 nM.

One may read the IC50 as the concentration needed to halve the response being measured. Higher therefore signals lower potency.

Values taken from US20160159862A1 (PROTAGONIST THERAPEUTICS, published 2016).
